# According to patent publication US20210388087A1 (Chugai, published 2021):
# Target: T1, Human CD137 ECD (human)
# T1 construct: also called 4-1BB
# Test: single mutant vs template dBBDu183H
# T1 sequence (chain, as listed by the source limits assumed): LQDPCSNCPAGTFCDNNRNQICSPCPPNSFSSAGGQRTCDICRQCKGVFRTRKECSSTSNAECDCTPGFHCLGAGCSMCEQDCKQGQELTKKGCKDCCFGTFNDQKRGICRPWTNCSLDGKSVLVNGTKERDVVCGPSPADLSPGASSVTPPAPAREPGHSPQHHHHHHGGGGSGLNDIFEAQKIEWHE
row,Binder,fold change of affinity [fold]
1,"H183/L072 VH Y58I (antibody, name in Kabat numbering, V domains shown) VH: QVQLVESGGGLVQPGRSLRLSCAASGFTFSNAWMHWVRQAPGKGLEWVAQIKDKGNAYAAIYAPSVKGRFTISRDDSKNSIYLQMNSLKTEDTAVYYCHYVHYASASTVLPAFGVDAWGQGTTVTVSS VL: DIVMTQSPLSLPVTPGEPASISCQASQELVHMNRNTYLHWYQQKPGQAPRLLIYKVSNRFPGVPDRFSGSGSGTDFTLKISRVEAEDVGVYYCAQGTSVPFTFGQGTKLEIK",0.2
2,"H183/L072 VH Y58K (antibody, name in Kabat numbering, V domains shown) VH: QVQLVESGGGLVQPGRSLRLSCAASGFTFSNAWMHWVRQAPGKGLEWVAQIKDKGNAYAAKYAPSVKGRFTISRDDSKNSIYLQMNSLKTEDTAVYYCHYVHYASASTVLPAFGVDAWGQGTTVTVSS VL: DIVMTQSPLSLPVTPGEPASISCQASQELVHMNRNTYLHWYQQKPGQAPRLLIYKVSNRFPGVPDRFSGSGSGTDFTLKISRVEAEDVGVYYCAQGTSVPFTFGQGTKLEIK",0.3
3,"H183/L072 VH Y58L (antibody, name in Kabat numbering, V domains shown) VH: QVQLVESGGGLVQPGRSLRLSCAASGFTFSNAWMHWVRQAPGKGLEWVAQIKDKGNAYAALYAPSVKGRFTISRDDSKNSIYLQMNSLKTEDTAVYYCHYVHYASASTVLPAFGVDAWGQGTTVTVSS VL: DIVMTQSPLSLPVTPGEPASISCQASQELVHMNRNTYLHWYQQKPGQAPRLLIYKVSNRFPGVPDRFSGSGSGTDFTLKISRVEAEDVGVYYCAQGTSVPFTFGQGTKLEIK",0.4
4,"H183/L072 VH Y58M (antibody, name in Kabat numbering, V domains shown) VH: QVQLVESGGGLVQPGRSLRLSCAASGFTFSNAWMHWVRQAPGKGLEWVAQIKDKGNAYAAMYAPSVKGRFTISRDDSKNSIYLQMNSLKTEDTAVYYCHYVHYASASTVLPAFGVDAWGQGTTVTVSS VL: DIVMTQSPLSLPVTPGEPASISCQASQELVHMNRNTYLHWYQQKPGQAPRLLIYKVSNRFPGVPDRFSGSGSGTDFTLKISRVEAEDVGVYYCAQGTSVPFTFGQGTKLEIK",0.6
5,"H183/L072 VH Y58N (antibody, name in Kabat numbering, V domains shown) VH: QVQLVESGGGLVQPGRSLRLSCAASGFTFSNAWMHWVRQAPGKGLEWVAQIKDKGNAYAANYAPSVKGRFTISRDDSKNSIYLQMNSLKTEDTAVYYCHYVHYASASTVLPAFGVDAWGQGTTVTVSS VL: DIVMTQSPLSLPVTPGEPASISCQASQELVHMNRNTYLHWYQQKPGQAPRLLIYKVSNRFPGVPDRFSGSGSGTDFTLKISRVEAEDVGVYYCAQGTSVPFTFGQGTKLEIK",0.3
6,"H183/L072 VH Y58P (antibody, name in Kabat numbering, V domains shown) VH: QVQLVESGGGLVQPGRSLRLSCAASGFTFSNAWMHWVRQAPGKGLEWVAQIKDKGNAYAAPYAPSVKGRFTISRDDSKNSIYLQMNSLKTEDTAVYYCHYVHYASASTVLPAFGVDAWGQGTTVTVSS VL: DIVMTQSPLSLPVTPGEPASISCQASQELVHMNRNTYLHWYQQKPGQAPRLLIYKVSNRFPGVPDRFSGSGSGTDFTLKISRVEAEDVGVYYCAQGTSVPFTFGQGTKLEIK",0.2
7,"H183/L072 VH Y58S (antibody, name in Kabat numbering, V domains shown) VH: QVQLVESGGGLVQPGRSLRLSCAASGFTFSNAWMHWVRQAPGKGLEWVAQIKDKGNAYAASYAPSVKGRFTISRDDSKNSIYLQMNSLKTEDTAVYYCHYVHYASASTVLPAFGVDAWGQGTTVTVSS VL: DIVMTQSPLSLPVTPGEPASISCQASQELVHMNRNTYLHWYQQKPGQAPRLLIYKVSNRFPGVPDRFSGSGSGTDFTLKISRVEAEDVGVYYCAQGTSVPFTFGQGTKLEIK",0.3
8,"H183/L072 VH Y59A (antibody, name in Kabat numbering, V domains shown) VH: QVQLVESGGGLVQPGRSLRLSCAASGFTFSNAWMHWVRQAPGKGLEWVAQIKDKGNAYAAYAAPSVKGRFTISRDDSKNSIYLQMNSLKTEDTAVYYCHYVHYASASTVLPAFGVDAWGQGTTVTVSS VL: DIVMTQSPLSLPVTPGEPASISCQASQELVHMNRNTYLHWYQQKPGQAPRLLIYKVSNRFPGVPDRFSGSGSGTDFTLKISRVEAEDVGVYYCAQGTSVPFTFGQGTKLEIK",0.7
9,"H183/L072 VH Y59D (antibody, name in Kabat numbering, V domains shown) VH: QVQLVESGGGLVQPGRSLRLSCAASGFTFSNAWMHWVRQAPGKGLEWVAQIKDKGNAYAAYDAPSVKGRFTISRDDSKNSIYLQMNSLKTEDTAVYYCHYVHYASASTVLPAFGVDAWGQGTTVTVSS VL: DIVMTQSPLSLPVTPGEPASISCQASQELVHMNRNTYLHWYQQKPGQAPRLLIYKVSNRFPGVPDRFSGSGSGTDFTLKISRVEAEDVGVYYCAQGTSVPFTFGQGTKLEIK",0.8
10,"H183/L072 VH Y59F (antibody, name in Kabat numbering, V domains shown) VH: QVQLVESGGGLVQPGRSLRLSCAASGFTFSNAWMHWVRQAPGKGLEWVAQIKDKGNAYAAYFAPSVKGRFTISRDDSKNSIYLQMNSLKTEDTAVYYCHYVHYASASTVLPAFGVDAWGQGTTVTVSS VL: DIVMTQSPLSLPVTPGEPASISCQASQELVHMNRNTYLHWYQQKPGQAPRLLIYKVSNRFPGVPDRFSGSGSGTDFTLKISRVEAEDVGVYYCAQGTSVPFTFGQGTKLEIK",1.5
11,"H183/L072 VH Y59I (antibody, name in Kabat numbering, V domains shown) VH: QVQLVESGGGLVQPGRSLRLSCAASGFTFSNAWMHWVRQAPGKGLEWVAQIKDKGNAYAAYIAPSVKGRFTISRDDSKNSIYLQMNSLKTEDTAVYYCHYVHYASASTVLPAFGVDAWGQGTTVTVSS VL: DIVMTQSPLSLPVTPGEPASISCQASQELVHMNRNTYLHWYQQKPGQAPRLLIYKVSNRFPGVPDRFSGSGSGTDFTLKISRVEAEDVGVYYCAQGTSVPFTFGQGTKLEIK",0.7
12,"H183/L072 VH Y59L (antibody, name in Kabat numbering, V domains shown) VH: QVQLVESGGGLVQPGRSLRLSCAASGFTFSNAWMHWVRQAPGKGLEWVAQIKDKGNAYAAYLAPSVKGRFTISRDDSKNSIYLQMNSLKTEDTAVYYCHYVHYASASTVLPAFGVDAWGQGTTVTVSS VL: DIVMTQSPLSLPVTPGEPASISCQASQELVHMNRNTYLHWYQQKPGQAPRLLIYKVSNRFPGVPDRFSGSGSGTDFTLKISRVEAEDVGVYYCAQGTSVPFTFGQGTKLEIK",1.1

# Results, then the binder that gave them:
row,fold change of affinity [fold],Binder
1,0.4,"H183/L072 VH Y58Q (antibody, name in Kabat numbering, V domains shown) VH: QVQLVESGGGLVQPGRSLRLSCAASGFTFSNAWMHWVRQAPGKGLEWVAQIKDKGNAYAAQYAPSVKGRFTISRDDSKNSIYLQMNSLKTEDTAVYYCHYVHYASASTVLPAFGVDAWGQGTTVTVSS VL: DIVMTQSPLSLPVTPGEPASISCQASQELVHMNRNTYLHWYQQKPGQAPRLLIYKVSNRFPGVPDRFSGSGSGTDFTLKISRVEAEDVGVYYCAQGTSVPFTFGQGTKLEIK"
2,0.4,"H183/L072 VH Y58R (antibody, name in Kabat numbering, V domains shown) VH: QVQLVESGGGLVQPGRSLRLSCAASGFTFSNAWMHWVRQAPGKGLEWVAQIKDKGNAYAARYAPSVKGRFTISRDDSKNSIYLQMNSLKTEDTAVYYCHYVHYASASTVLPAFGVDAWGQGTTVTVSS VL: DIVMTQSPLSLPVTPGEPASISCQASQELVHMNRNTYLHWYQQKPGQAPRLLIYKVSNRFPGVPDRFSGSGSGTDFTLKISRVEAEDVGVYYCAQGTSVPFTFGQGTKLEIK"
3,0.3,"H183/L072 VH Y58T (antibody, name in Kabat numbering, V domains shown) VH: QVQLVESGGGLVQPGRSLRLSCAASGFTFSNAWMHWVRQAPGKGLEWVAQIKDKGNAYAATYAPSVKGRFTISRDDSKNSIYLQMNSLKTEDTAVYYCHYVHYASASTVLPAFGVDAWGQGTTVTVSS VL: DIVMTQSPLSLPVTPGEPASISCQASQELVHMNRNTYLHWYQQKPGQAPRLLIYKVSNRFPGVPDRFSGSGSGTDFTLKISRVEAEDVGVYYCAQGTSVPFTFGQGTKLEIK"
4,0.2,"H183/L072 VH Y58V (antibody, name in Kabat numbering, V domains shown) VH: QVQLVESGGGLVQPGRSLRLSCAASGFTFSNAWMHWVRQAPGKGLEWVAQIKDKGNAYAAVYAPSVKGRFTISRDDSKNSIYLQMNSLKTEDTAVYYCHYVHYASASTVLPAFGVDAWGQGTTVTVSS VL: DIVMTQSPLSLPVTPGEPASISCQASQELVHMNRNTYLHWYQQKPGQAPRLLIYKVSNRFPGVPDRFSGSGSGTDFTLKISRVEAEDVGVYYCAQGTSVPFTFGQGTKLEIK"
5,0.2,"H183/L072 VH Y58W (antibody, name in Kabat numbering, V domains shown) VH: QVQLVESGGGLVQPGRSLRLSCAASGFTFSNAWMHWVRQAPGKGLEWVAQIKDKGNAYAAWYAPSVKGRFTISRDDSKNSIYLQMNSLKTEDTAVYYCHYVHYASASTVLPAFGVDAWGQGTTVTVSS VL: DIVMTQSPLSLPVTPGEPASISCQASQELVHMNRNTYLHWYQQKPGQAPRLLIYKVSNRFPGVPDRFSGSGSGTDFTLKISRVEAEDVGVYYCAQGTSVPFTFGQGTKLEIK"
6,0.7,"H183/L072 VH Y59E (antibody, name in Kabat numbering, V domains shown) VH: QVQLVESGGGLVQPGRSLRLSCAASGFTFSNAWMHWVRQAPGKGLEWVAQIKDKGNAYAAYEAPSVKGRFTISRDDSKNSIYLQMNSLKTEDTAVYYCHYVHYASASTVLPAFGVDAWGQGTTVTVSS VL: DIVMTQSPLSLPVTPGEPASISCQASQELVHMNRNTYLHWYQQKPGQAPRLLIYKVSNRFPGVPDRFSGSGSGTDFTLKISRVEAEDVGVYYCAQGTSVPFTFGQGTKLEIK"
7,0.9,"H183/L072 VH Y59G (antibody, name in Kabat numbering, V domains shown) VH: QVQLVESGGGLVQPGRSLRLSCAASGFTFSNAWMHWVRQAPGKGLEWVAQIKDKGNAYAAYGAPSVKGRFTISRDDSKNSIYLQMNSLKTEDTAVYYCHYVHYASASTVLPAFGVDAWGQGTTVTVSS VL: DIVMTQSPLSLPVTPGEPASISCQASQELVHMNRNTYLHWYQQKPGQAPRLLIYKVSNRFPGVPDRFSGSGSGTDFTLKISRVEAEDVGVYYCAQGTSVPFTFGQGTKLEIK"
8,0.8,"H183/L072 VH Y59H (antibody, name in Kabat numbering, V domains shown) VH: QVQLVESGGGLVQPGRSLRLSCAASGFTFSNAWMHWVRQAPGKGLEWVAQIKDKGNAYAAYHAPSVKGRFTISRDDSKNSIYLQMNSLKTEDTAVYYCHYVHYASASTVLPAFGVDAWGQGTTVTVSS VL: DIVMTQSPLSLPVTPGEPASISCQASQELVHMNRNTYLHWYQQKPGQAPRLLIYKVSNRFPGVPDRFSGSGSGTDFTLKISRVEAEDVGVYYCAQGTSVPFTFGQGTKLEIK"
9,1,"H183/L072 VH Y59K (antibody, name in Kabat numbering, V domains shown) VH: QVQLVESGGGLVQPGRSLRLSCAASGFTFSNAWMHWVRQAPGKGLEWVAQIKDKGNAYAAYKAPSVKGRFTISRDDSKNSIYLQMNSLKTEDTAVYYCHYVHYASASTVLPAFGVDAWGQGTTVTVSS VL: DIVMTQSPLSLPVTPGEPASISCQASQELVHMNRNTYLHWYQQKPGQAPRLLIYKVSNRFPGVPDRFSGSGSGTDFTLKISRVEAEDVGVYYCAQGTSVPFTFGQGTKLEIK"
